US20240270846A1 (published 2024)

B1: CE115HA000 D101T one-arm antibody (antibody, human IgG1, kappa, L234A L235A, N297A, name in Kabat numbering)
heavy: QVQLVESGGGVVQPGRSLRLSCAASGFTFSNAWMHWVRQAPGKGLEWVAQIKAKSNNYATYYAESVKGRFTISRDDSKNSLYLQMNSLKTEDTAVYYCRYVHYGAYYGVTAWGQGTTVTVSSASTKGPSVFPLAPSSKSTSGGTAALGCLVKDYFPEPVTVSWNSGALTSGVHTFPAVLQSSGLYSLSSVVTVPSSSLGTQTYICNVNHKPSNTKVDKKVEPKSCDKTHTCPPCPAPEAAGGPSVFLFPPKPKDTLMISRTPEVTCVVVDVSHEDPEVKFNWYVDGVEVHNAKTKPREEQYASTYRVVSVLTVLHQDWLNGKEYKCKVSNKALPAPIEKTISKAKGQPREPQVYTLPPSRCELTKNQVSLSCAVKGFYPSDIAVEWESNGQPENNYKTTPPVLDSDGSFFLVSKLTVDKSRWQQGNVFSCSVMHEALHNHYTQKSLSLSPDYKDDDDK
chain: EPKSSDKTHTCPPCPAPELLGGPSVFLFPPKPKDTLMISRTPEVTCVVVDVSHEDPEVKFNWYVDGVEVHNAKTKPREEQYNSTYRVVSVLTVLHQDWLNGKEYKCKVSNKALPAPIEKTISKAKGQPREPQVCTLPPSRDELTKNQVSLWCLVKGFYPSDIAVEWESNGQPENNYKTTPPVLDSDGSFFLYSKLTVDKSRWQQGNVFSCSVMHEALHNRYTQKSLSLSP
light: DIVMTQSPLSLPVTPGEPASISCRSSQSLVHSNRNTYLHWYQQKPGQAPRLLIYKVSNRFSGVPDRFSGSGSGTDFTLKISRVEAEDVGVYYCGQGTQVPYTFGQGTKLEIKRTVAAPSVFIFPPSDEQLKSGTASVVCLLNNFYPREAKVQWKVDNALQSGNSQESVTEQDSKDSTYSLSSTLTLSKADYEKHKVYACEVTHQGLSSPVTKSFNRGEC
notes: one-arm antibody
B2: CE115HA000 G65D one-arm antibody (antibody, human IgG1, kappa, L234A L235A, N297A, name in Kabat numbering)
heavy: QVQLVESGGGVVQPGRSLRLSCAASGFTFSNAWMHWVRQAPGKGLEWVAQIKAKSNNYATYYAESVKDRFTISRDDSKNSLYLQMNSLKTEDTAVYYCRYVHYGAYYGVDAWGQGTTVTVSSASTKGPSVFPLAPSSKSTSGGTAALGCLVKDYFPEPVTVSWNSGALTSGVHTFPAVLQSSGLYSLSSVVTVPSSSLGTQTYICNVNHKPSNTKVDKKVEPKSCDKTHTCPPCPAPEAAGGPSVFLFPPKPKDTLMISRTPEVTCVVVDVSHEDPEVKFNWYVDGVEVHNAKTKPREEQYASTYRVVSVLTVLHQDWLNGKEYKCKVSNKALPAPIEKTISKAKGQPREPQVYTLPPSRCELTKNQVSLSCAVKGFYPSDIAVEWESNGQPENNYKTTPPVLDSDGSFFLVSKLTVDKSRWQQGNVFSCSVMHEALHNHYTQKSLSLSPDYKDDDDK
chain: EPKSSDKTHTCPPCPAPELLGGPSVFLFPPKPKDTLMISRTPEVTCVVVDVSHEDPEVKFNWYVDGVEVHNAKTKPREEQYNSTYRVVSVLTVLHQDWLNGKEYKCKVSNKALPAPIEKTISKAKGQPREPQVCTLPPSRDELTKNQVSLWCLVKGFYPSDIAVEWESNGQPENNYKTTPPVLDSDGSFFLYSKLTVDKSRWQQGNVFSCSVMHEALHNRYTQKSLSLSP
light: DIVMTQSPLSLPVTPGEPASISCRSSQSLVHSNRNTYLHWYQQKPGQAPRLLIYKVSNRFSGVPDRFSGSGSGTDFTLKISRVEAEDVGVYYCGQGTQVPYTFGQGTKLEIKRTVAAPSVFIFPPSDEQLKSGTASVVCLLNNFYPREAKVQWKVDNALQSGNSQESVTEQDSKDSTYSLSSTLTLSKADYEKHKVYACEVTHQGLSSPVTKSFNRGEC
notes: one-arm antibody
B3: CE115HA000 G98A one-arm antibody (antibody, human IgG1, kappa, L234A L235A, N297A, name in Kabat numbering)
heavy: QVQLVESGGGVVQPGRSLRLSCAASGFTFSNAWMHWVRQAPGKGLEWVAQIKAKSNNYATYYAESVKGRFTISRDDSKNSLYLQMNSLKTEDTAVYYCRYVHYAAYYGVDAWGQGTTVTVSSASTKGPSVFPLAPSSKSTSGGTAALGCLVKDYFPEPVTVSWNSGALTSGVHTFPAVLQSSGLYSLSSVVTVPSSSLGTQTYICNVNHKPSNTKVDKKVEPKSCDKTHTCPPCPAPEAAGGPSVFLFPPKPKDTLMISRTPEVTCVVVDVSHEDPEVKFNWYVDGVEVHNAKTKPREEQYASTYRVVSVLTVLHQDWLNGKEYKCKVSNKALPAPIEKTISKAKGQPREPQVYTLPPSRCELTKNQVSLSCAVKGFYPSDIAVEWESNGQPENNYKTTPPVLDSDGSFFLVSKLTVDKSRWQQGNVFSCSVMHEALHNHYTQKSLSLSPDYKDDDDK
chain: EPKSSDKTHTCPPCPAPELLGGPSVFLFPPKPKDTLMISRTPEVTCVVVDVSHEDPEVKFNWYVDGVEVHNAKTKPREEQYNSTYRVVSVLTVLHQDWLNGKEYKCKVSNKALPAPIEKTISKAKGQPREPQVCTLPPSRDELTKNQVSLWCLVKGFYPSDIAVEWESNGQPENNYKTTPPVLDSDGSFFLYSKLTVDKSRWQQGNVFSCSVMHEALHNRYTQKSLSLSP
light: DIVMTQSPLSLPVTPGEPASISCRSSQSLVHSNRNTYLHWYQQKPGQAPRLLIYKVSNRFSGVPDRFSGSGSGTDFTLKISRVEAEDVGVYYCGQGTQVPYTFGQGTKLEIKRTVAAPSVFIFPPSDEQLKSGTASVVCLLNNFYPREAKVQWKVDNALQSGNSQESVTEQDSKDSTYSLSSTLTLSKADYEKHKVYACEVTHQGLSSPVTKSFNRGEC
notes: one-arm antibody
B4: CE115HA000 D101Y one-arm antibody (antibody, human IgG1, kappa, L234A L235A, N297A, name in Kabat numbering)
heavy: QVQLVESGGGVVQPGRSLRLSCAASGFTFSNAWMHWVRQAPGKGLEWVAQIKAKSNNYATYYAESVKGRFTISRDDSKNSLYLQMNSLKTEDTAVYYCRYVHYGAYYGVYAWGQGTTVTVSSASTKGPSVFPLAPSSKSTSGGTAALGCLVKDYFPEPVTVSWNSGALTSGVHTFPAVLQSSGLYSLSSVVTVPSSSLGTQTYICNVNHKPSNTKVDKKVEPKSCDKTHTCPPCPAPEAAGGPSVFLFPPKPKDTLMISRTPEVTCVVVDVSHEDPEVKFNWYVDGVEVHNAKTKPREEQYASTYRVVSVLTVLHQDWLNGKEYKCKVSNKALPAPIEKTISKAKGQPREPQVYTLPPSRCELTKNQVSLSCAVKGFYPSDIAVEWESNGQPENNYKTTPPVLDSDGSFFLVSKLTVDKSRWQQGNVFSCSVMHEALHNHYTQKSLSLSPDYKDDDDK
chain: EPKSSDKTHTCPPCPAPELLGGPSVFLFPPKPKDTLMISRTPEVTCVVVDVSHEDPEVKFNWYVDGVEVHNAKTKPREEQYNSTYRVVSVLTVLHQDWLNGKEYKCKVSNKALPAPIEKTISKAKGQPREPQVCTLPPSRDELTKNQVSLWCLVKGFYPSDIAVEWESNGQPENNYKTTPPVLDSDGSFFLYSKLTVDKSRWQQGNVFSCSVMHEALHNRYTQKSLSLSP
light: DIVMTQSPLSLPVTPGEPASISCRSSQSLVHSNRNTYLHWYQQKPGQAPRLLIYKVSNRFSGVPDRFSGSGSGTDFTLKISRVEAEDVGVYYCGQGTQVPYTFGQGTKLEIKRTVAAPSVFIFPPSDEQLKSGTASVVCLLNNFYPREAKVQWKVDNALQSGNSQESVTEQDSKDSTYSLSSTLTLSKADYEKHKVYACEVTHQGLSSPVTKSFNRGEC
notes: one-arm antibody
B5: CE115HA000 G65E one-arm antibody (antibody, human IgG1, kappa, L234A L235A, N297A, name in Kabat numbering)
heavy: QVQLVESGGGVVQPGRSLRLSCAASGFTFSNAWMHWVRQAPGKGLEWVAQIKAKSNNYATYYAESVKERFTISRDDSKNSLYLQMNSLKTEDTAVYYCRYVHYGAYYGVDAWGQGTTVTVSSASTKGPSVFPLAPSSKSTSGGTAALGCLVKDYFPEPVTVSWNSGALTSGVHTFPAVLQSSGLYSLSSVVTVPSSSLGTQTYICNVNHKPSNTKVDKKVEPKSCDKTHTCPPCPAPEAAGGPSVFLFPPKPKDTLMISRTPEVTCVVVDVSHEDPEVKFNWYVDGVEVHNAKTKPREEQYASTYRVVSVLTVLHQDWLNGKEYKCKVSNKALPAPIEKTISKAKGQPREPQVYTLPPSRCELTKNQVSLSCAVKGFYPSDIAVEWESNGQPENNYKTTPPVLDSDGSFFLVSKLTVDKSRWQQGNVFSCSVMHEALHNHYTQKSLSLSPDYKDDDDK
chain: EPKSSDKTHTCPPCPAPELLGGPSVFLFPPKPKDTLMISRTPEVTCVVVDVSHEDPEVKFNWYVDGVEVHNAKTKPREEQYNSTYRVVSVLTVLHQDWLNGKEYKCKVSNKALPAPIEKTISKAKGQPREPQVCTLPPSRDELTKNQVSLWCLVKGFYPSDIAVEWESNGQPENNYKTTPPVLDSDGSFFLYSKLTVDKSRWQQGNVFSCSVMHEALHNRYTQKSLSLSP
light: DIVMTQSPLSLPVTPGEPASISCRSSQSLVHSNRNTYLHWYQQKPGQAPRLLIYKVSNRFSGVPDRFSGSGSGTDFTLKISRVEAEDVGVYYCGQGTQVPYTFGQGTKLEIKRTVAAPSVFIFPPSDEQLKSGTASVVCLLNNFYPREAKVQWKVDNALQSGNSQESVTEQDSKDSTYSLSSTLTLSKADYEKHKVYACEVTHQGLSSPVTKSFNRGEC
notes: one-arm antibody
B6: CE115HA000 D101V one-arm antibody (antibody, human IgG1, kappa, L234A L235A, N297A, name in Kabat numbering)
heavy: QVQLVESGGGVVQPGRSLRLSCAASGFTFSNAWMHWVRQAPGKGLEWVAQIKAKSNNYATYYAESVKGRFTISRDDSKNSLYLQMNSLKTEDTAVYYCRYVHYGAYYGVVAWGQGTTVTVSSASTKGPSVFPLAPSSKSTSGGTAALGCLVKDYFPEPVTVSWNSGALTSGVHTFPAVLQSSGLYSLSSVVTVPSSSLGTQTYICNVNHKPSNTKVDKKVEPKSCDKTHTCPPCPAPEAAGGPSVFLFPPKPKDTLMISRTPEVTCVVVDVSHEDPEVKFNWYVDGVEVHNAKTKPREEQYASTYRVVSVLTVLHQDWLNGKEYKCKVSNKALPAPIEKTISKAKGQPREPQVYTLPPSRCELTKNQVSLSCAVKGFYPSDIAVEWESNGQPENNYKTTPPVLDSDGSFFLVSKLTVDKSRWQQGNVFSCSVMHEALHNHYTQKSLSLSPDYKDDDDK
chain: EPKSSDKTHTCPPCPAPELLGGPSVFLFPPKPKDTLMISRTPEVTCVVVDVSHEDPEVKFNWYVDGVEVHNAKTKPREEQYNSTYRVVSVLTVLHQDWLNGKEYKCKVSNKALPAPIEKTISKAKGQPREPQVCTLPPSRDELTKNQVSLWCLVKGFYPSDIAVEWESNGQPENNYKTTPPVLDSDGSFFLYSKLTVDKSRWQQGNVFSCSVMHEALHNRYTQKSLSLSP
light: DIVMTQSPLSLPVTPGEPASISCRSSQSLVHSNRNTYLHWYQQKPGQAPRLLIYKVSNRFSGVPDRFSGSGSGTDFTLKISRVEAEDVGVYYCGQGTQVPYTFGQGTKLEIKRTVAAPSVFIFPPSDEQLKSGTASVVCLLNNFYPREAKVQWKVDNALQSGNSQESVTEQDSKDSTYSLSSTLTLSKADYEKHKVYACEVTHQGLSSPVTKSFNRGEC
notes: one-arm antibody

Molecular target: T1, CD3 epsilon homodimer protein (UniProt P07766 23-126)
T1 construct: Construct of the homodimer protein is not described; also called CD3 (CD3 epsilon)
T1 sequence (P07766 23-126): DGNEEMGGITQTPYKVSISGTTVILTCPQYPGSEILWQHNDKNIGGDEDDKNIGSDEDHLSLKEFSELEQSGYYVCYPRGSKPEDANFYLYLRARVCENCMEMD
Assay: SPR (Biacore T200), CD3 epsilon homodimer on CM4 chip, one-arm antibody as analyte; ratio to unaltered CE115HA000;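 further: surface plasmon resonance run at 25 °C with HBS-EP+ as running buffer, CD3 epsilon homodimer attached by amine coupling, antibody passed over as analyte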

With B1 as the binder, how does the “KD ratio (KD value of CE115HA000/KD value of the altered form)” value (“KD ratio” below) read?
The value was 0.62.

For B2, which “KD ratio” value is on record?
The value was 0.61.

B3 was tested. Which “KD ratio” value did it give?
The value was 0.98.

B4 was tested. Which “KD ratio” value did it give?
The value was 0.97.

For B5, which “KD ratio” value is on record?
Its value is 0.61.

For B6, which “KD ratio” value is on record?
Its value is 1.18.
